# Reference: patent publication US20200002432A1, “ANTI-CD98 ANTIBODIES AND ANTIBODY DRUG CONJUGATES” (AbbVie Inc., priority 2016, published 2020)
# T1: Human CD98 ECD with C-terminal His-tag (human, UniProt P08195 105-529)
# T1 construct: also called huCD98 ECD; recombinant human CD98 extracellular domain
# T1 sequence: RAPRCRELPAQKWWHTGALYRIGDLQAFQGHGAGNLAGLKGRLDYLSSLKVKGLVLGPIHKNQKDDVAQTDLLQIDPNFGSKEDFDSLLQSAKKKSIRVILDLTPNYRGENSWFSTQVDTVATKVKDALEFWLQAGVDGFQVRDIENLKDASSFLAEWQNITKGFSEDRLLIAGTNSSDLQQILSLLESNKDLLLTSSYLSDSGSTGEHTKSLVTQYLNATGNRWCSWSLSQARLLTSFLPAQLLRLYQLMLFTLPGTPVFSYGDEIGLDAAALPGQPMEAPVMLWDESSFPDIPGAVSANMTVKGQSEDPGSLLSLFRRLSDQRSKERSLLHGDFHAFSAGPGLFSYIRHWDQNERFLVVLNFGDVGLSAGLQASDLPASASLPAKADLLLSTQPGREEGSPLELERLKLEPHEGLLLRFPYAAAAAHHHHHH
# T2: Cynomolgus monkey CD98 ECD with C-terminal His-tag (cynomolgus monkey, UniProt P08195 105-529 (human entry))
# T2 construct: also called cyCD98 ECD; recombinant cynomolgus monkey CD98 extracellular domain
# T2 chain: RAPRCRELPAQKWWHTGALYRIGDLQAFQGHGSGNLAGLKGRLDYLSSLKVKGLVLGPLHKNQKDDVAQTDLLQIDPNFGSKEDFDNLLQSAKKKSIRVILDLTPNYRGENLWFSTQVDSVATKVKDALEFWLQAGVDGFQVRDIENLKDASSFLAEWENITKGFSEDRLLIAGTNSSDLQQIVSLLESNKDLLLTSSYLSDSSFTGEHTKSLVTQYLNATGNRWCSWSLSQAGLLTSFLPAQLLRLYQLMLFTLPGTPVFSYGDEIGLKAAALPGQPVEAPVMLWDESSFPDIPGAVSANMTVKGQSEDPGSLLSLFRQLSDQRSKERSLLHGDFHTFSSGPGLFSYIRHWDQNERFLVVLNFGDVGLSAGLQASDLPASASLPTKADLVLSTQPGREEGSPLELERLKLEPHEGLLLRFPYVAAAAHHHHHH
# Columns and labels:
# [1] = tested on: A549-FP3 human lung carcinoma xenograft; test: A549 FP3 xenograft tumor growth inhibition in SCID-bg mice, with or without docetaxel; type: in vivo, mouse; conditions: QD × 1, Ab095 8 mg/kg IP, docetaxel 7.5 mg/kg IV, ADC 10 mg/kg IP, combination 7.5 + 10
# Experimental: (§1) The cell lines A549 and NCI-H460 were obtained from the American Type Culture Collection (ATCC, Manassas, Va.). A549 cell line was further passaged in mice as flank xenograft to improve xenograft tumor growth, resulting in the A549-FP3 line. Cells were cultured as monolayers in RPMI-1640 culture media (Invitrogen, Carlsbad, Calif.) supplemented with 10% Fetal Bovine Serum (FBS, Hyclone, Logan, Utah). To generate xenografts, 5×10^6 (A549 and NCI-H460) viable cells were inoculated subcutaneously into the right flank of immune deficient female SCID-bg mice (Charles River Laboratories, Wilmington, Mass.). The injection volume was 0.2 ml and composed of 1:1 S-MEM:Matrigel Matrigel (BD, Franklin Lakes, N.J.). Tumors were size matched at approximately 223 mm^3. Antibodies, conjugates, and docetaxel were formulated in 0.9% sodium chloride for injection. […] Therapy began within 24 hours after size matching of the tumors. Mice weighed approximately 21 g at the onset of therapy. Tumor volume was estimated two to three times weekly. Measurements of the length (L) and width (W) of the tumor were taken via electronic caliper and the volume was calculated according to the following equation: V=L×W^2/2. […] Eight mice were housed per cage. […] Tumor growth inhibition is calculated by 100*(1−Tv/Cv) where Tv and Cv are the mean tumor volumes of the treated and control groups, respectively.
# [2] = tested on: NCI-H460 human lung carcinoma xenograft; test: NCI-H460 xenograft tumor growth inhibition in SCID-bg mice, with or without docetaxel; type: in vivo, mouse; conditions: QD × 1, Ab095 8 mg/kg IP, docetaxel 7.5 mg/kg IV, ADC 10 mg/kg IP, combination 7.5 + 10
# Experimental: as §1
# [3] = target: T1, Human CD98 ECD with C-terminal His-tag; test: SPR (Biacore), mAb captured on anti-Fc, CD98 ECD as analyte
# Experimental: (§2) The binding kinetics of these purified mouse and rat monoclonal anti-CD98 antibodies for purified recombinant CD98 protein (extracellular domain, ECD) were determined by surface plasmon resonance-based measurements made on Biacore T100/T200 instruments (GE Healthcare, Piscataway, N.J.) at 25° C. using an anti-Fc capture assay approach. Binding kinetic measurements were made in the assay buffer HBS-EP+: 10 mM Hepes, pH 7.4, 150 mM NaCl, 3 mM EDTA, 0.05% Tween 20). For example, approximately 8000 RU of anti-Fc (species specific) polyclonal antibody (Thermo Fisher Scientific Inc., Rockford, Ill.) diluted in 10 mM sodium acetate (pH 4.5) was directly immobilized across a CM5 research grade biosensor chip using a standard amine coupling kit according to manufacturer's instructions and procedures at 25 μg/ml. Unreacted moieties on the biosensor surface were blocked with ethanolamine. The test antibody to be captured as a ligand was diluted in running buffer to ˜0.5 μg/mL and injected over anti-Fc surface at a flow rate of 10 μL/min. CD98 binding and dissociation were observed under a continuous flow rate of 80 μL/min. Human and cynomolgus monkey CD98 ECDs, both with a C-terminal His-tag, are used for this study (Table 3). After each cycle the anti-Fc capture surface was regenerated using 10 mM Glycine-HCl, pH 1.5. During the assay, all measurements were referenced against the capture surface alone (i.e., with no captured test antibody) and buffer-only injections (no antigen) were used for double referencing. For kinetic analysis, rate equations derived from the 1:1 Langmuir binding model were fitted simultaneously, globally and with mass transfer term included to multiple referenced antigen binding curves using Biacore T100/T200 Evaluation software.
# [4] = target: T2, Cynomolgus monkey CD98 ECD with …; test: as above
# Experimental: as §2
Molecule,TGD (%) [1] [%],TGImax (%) [1] [%],TGD (%) [2] [%],TGImax (%) [2] [%],Kd [3] [nM],koff [3] [s⁻¹],kon [3] [M⁻¹ s⁻¹],Kd [4] [nM],koff [4] [s⁻¹],kon [4] [M⁻¹ s⁻¹]
"CC(=O)O[C@@]12CO[C@@H]1C[C@H](O)[C@@]1(C)C(=O)[C@H](O)C3=C(C)[C@@H](OC(=O)[C@H](O)[C@@H](NC(=O)OC(C)(C)C)c4ccccc4)C[C@@](O)([C@@H](OC(=O)c4ccccc4)[C@H]21)C3(C)C [Docetaxel, reference compound]",80,62,30,35,,,,,,
"Ab13 (antibody, V domains shown, also called anti-CD98 hybridoma mAb Ab13) VH: EVKLQQSGDELVRPGASVKISCKASGYTFTSYSMHWVKERPGQGLEWIGAIFPIIGTTEYNQKFKGKATLTADKSSNTANMELSRLTSEDSAVYYCARVYLSYFDYWGQGVMVTVSS VL: DIQMTQSPSFLSASVGDRVTINCKASQNINKYLDWYQRKHGEAPKLLIYNTNNLQTGIPSRFSGSGSGTDYTLTISSLQPEDVATYFCLQHSSRYTFGAGTKLELK",,,,,1.9,5.5e-05,29000,47,0.00088,19000
